Assays:
Conditions in all cases: both partners purified
[1] = biological target: T1, cholera toxin B-subunit pentamer (Vibrio cholerae; ctxB genotype of …, UniProt P01556); experiment: BLI
T1 construct: source: bought: Sigma-Aldrich (C9903)

[2] = biological target: T2, cholera toxin holotoxin (AB5) (Vibrio cholerae; strain/ctxB genotype …, UniProt P01555;P01556); experiment: SEC
T2 construct: source: Vibrio natriegens, from culture medium, purified (D-galactose column, SEC); copies: 1 + 5

[3] = biological target: T3, heat-labile enterotoxin B-subunit pentamer (LTB-6HIS-3FLAG) (Escherichia coli (ETEC), human-type …, UniProt P0CK94, biotin (NHS-PEG4-Biotin) in the DELFIA experiments only); experiment: BLI; Octet RED96; […] (76 nM) […] (120–0.470 nM); […]
[4] = biological target: T3, heat-labile enterotoxin B-subunit …; experiment: SPR; Biacore 8K+; […] (1–300 nM); single-cycle kinetics, HBS-EP+, 30 µl min^−1, 25 °C; global 1:1 model
[5] = biological target: T3, heat-labile enterotoxin B-subunit …; experiment: SPR; Biacore 8K+; […] (1–300 nM); single-cycle kinetics, HBS-EP+, 30 µl min^−1, 25 °C; global 1:1 model; […]
[6] = biological target: T4, LTB pentamer (receptor-binding B-subunit of heat-labile enterotoxin), LTB-6HIS-3FLAG (Escherichia coli (ETEC), human-type …, UniProt P0CK94); experiment: BLI; Octet RED96; […] (76 nM) […] (120-0.470 nM); global 1:1 ([…]) fit; […]
T4 construct: source: E. coli BL21 (DE3), periplasmic extract, purified (IMAC)

[7] = biological target: T5, CTXB pentamer (receptor-binding B-subunit of cholera toxin) (Vibrio cholerae; ctxB genotype of …, UniProt P01556); experiment: as above
T5 construct: source: bought: Sigma-Aldrich (C9903)

[8] = biological target: T4, LTB pentamer (receptor-binding …); experiment: SPR; Biacore 8K+; […] (1 µg/ml) […] (1-300 nM), single-cycle kinetics, HBS-EP+, 30 µl/min, 25 °C; global 1:1 fit; […]
[9] = biological target: T5, CTXB pentamer (receptor-binding …); experiment: as above
[10] = biological target: T4, LTB pentamer (receptor-binding …); experiment: SPR; Biacore 8K+; […] (5 µg/ml) […] (1-300 nM), single-cycle kinetics, HBS-EP+, 30 µl/min, 25 °C; global 1:1 fit; […]
[11] = biological target: T5, CTXB pentamer (receptor-binding …); experiment: as above

T2 sequence (P01556 22-124, looked up, chain 1 of 2): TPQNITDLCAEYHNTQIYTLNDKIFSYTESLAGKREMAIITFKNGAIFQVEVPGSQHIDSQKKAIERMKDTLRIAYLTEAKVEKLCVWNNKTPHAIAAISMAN
T2 sequence (P01555 whole entry, looked up, chain 2 of 2): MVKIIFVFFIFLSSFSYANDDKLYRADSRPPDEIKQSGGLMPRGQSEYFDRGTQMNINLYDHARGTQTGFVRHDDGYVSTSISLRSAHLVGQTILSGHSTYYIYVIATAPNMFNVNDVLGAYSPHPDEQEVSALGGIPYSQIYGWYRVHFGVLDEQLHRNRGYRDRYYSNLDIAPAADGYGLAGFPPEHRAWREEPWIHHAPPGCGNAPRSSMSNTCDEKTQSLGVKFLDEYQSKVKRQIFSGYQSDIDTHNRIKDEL

Binder | Kd [1] | binding result [2] | Kd [3] | Kd [4] | Kd [5] | koff [6] | kon [6] | koff [7] | kon [7] | koff [8] | kon [8] | koff [9] | kon [9] | koff [10] | kon [10] | koff [11] | kon [11]
monovalent VHH BL2.1 (VHH, also called LT109; non-N-glycosylated BL2.1; source: E. coli BL21 (DE3), periplasmic extract, purified (IMAC, cation exchange)) VHH: QVQLQQSGGGLVQAGGSLRLSCAASGFTFDDYAIGWFRQAPGKEREGISSIVGSDNYTWYTDSVKGRFTISSDNTRSTVYLQMNSLKPEDTAVYYCAADSYSDYVSLNPETFGSWGQGTQVTVSS | 0.33 nM | binds | < 0.001 nM | 0.26 nM | 0.003 nM |  |  |  |  |  |  |  |  |  |  |  | 
BL2.1 (monovalent VHH) (VHH, also called LT109; VHH BL2.1; source: E. coli BL21 (DE3), periplasmic extract, purified (IMAC, cation exchange)) VHH: QVQLQQSGGGLVQAGGSLRLSCAASGFTFDDYAIGWFRQAPGKEREGISSIVGSDNYTWYTDSVKGRFTISSDNTRSTVYLQMNSLKPEDTAVYYCAADSYSDYVSLNPETFGSWGQGTQVTVSS |  |  |  |  |  | < 1e-07 s⁻¹ | 69700 M⁻¹ s⁻¹ | 3.53e-05 s⁻¹ | 108000 M⁻¹ s⁻¹ | 2.48e-05 s⁻¹ | 7.93e+06 M⁻¹ s⁻¹ | 0.000212 s⁻¹ | 557000 M⁻¹ s⁻¹ | 0.000182 s⁻¹ | 696000 M⁻¹ s⁻¹ | 0.00179 s⁻¹ | 218000 M⁻¹ s⁻¹

From publication PMC12754688 (Gut Microbes, 2025)
